Test results: WO2017205216A1 (dated 2017)

Molecular target: T1, murine PD-L1 (murine, UniProt Q9EP73 19-238, limits assumed)
T1 construct: also called PD-Ll; mouse target protein
Assay: not described; stated in Example 1

T1 sequence (Q9EP73 19-238 limits assumed): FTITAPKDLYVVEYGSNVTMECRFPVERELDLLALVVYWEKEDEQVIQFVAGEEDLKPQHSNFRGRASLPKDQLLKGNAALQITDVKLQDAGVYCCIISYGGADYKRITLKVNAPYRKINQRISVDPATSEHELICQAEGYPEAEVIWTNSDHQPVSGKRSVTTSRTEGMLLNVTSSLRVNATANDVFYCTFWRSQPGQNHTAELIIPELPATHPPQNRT

B1: anti-murine PD-L1 clone 178G7 (antibody, V domains shown)
VH: QVQLQQSGADLAKPGSSVKISCKASGYNFNSYYINWIKQTTGQGLEYIGYINTVSGTTKYSEKFKGKATLTVDKSSSTAFMQLSSLTPDDSAVYYCARGTIVLDDYWGQGVKVTVSS
VL: DIVMTQTPSSQAVSAGEKVTMSCKSSQSLLYNEKKKNYLAWYQQKPGQSPKLLIYWASTRESGVPDRFLGSGSGTDFTLTINSVQAEDLAVYYCQQSYDFPRTFGGGTKLELKR
notes: also called anti-PD-L1 antibody; anti-PD-L1 therapy
Question: Does B1 bind?
Answer: binds
